How the values were obtained:
[1] = system: C57BL/6 mice given 2.5% DSS in drinking water; experiment: Concurrent (prophylactic) DSS model of inflammatory bowel disease (Example 4, Example 13A); assay type: in vivo, mouse; conditions: for 4KDa-FITC signal in serum / Colon length: vs DSS+vehicle; for Colon length: FIG. 22A
Description: Specifically, the mice in Examples 4 and 5 were treated with dextran sodium sulfate (DSS), a chemical known to induce intestinal epithelial damage and thereby reduce intestinal barrier integrity and function. DSS mice are well-accepted models of colitis. In Example 4, mice were treated with SG-11 protein approximately concurrent with (6 hours prior to) administration of DSS. In Example 5, mice were treated with DSS for 6 days prior to treatment with SG-11 protein.
The graphs presented in Example 4 represent data pooled from 3 independent experiments, each using 10 mice (n=30). The SG-11 protein used in these experiments was the mature protein (no signal peptide) without an N-terminal tag and comprising the amino acid sequence of SEQ ID NO:3. For 2 experiments, the SG-11 protein consisted of SEQ ID NO:5; for the third experiment, the SG-11 protein consisted of SEQ ID NO:7.
Eight-week old C57BL/6 mice were housed 5 animals were cage and given food and water ad libitum for 7 days. Following the 7-day acclimation period, treatments were initiated concurrently with addition of 2.5% DSS to the drinking water. […] The mice were treated with 2.5% dextran sodium sulfate (DSS) in their drinking water for 6 days. Treatments were continued with SG-11 or Gly2-GLP2 twice a day (b.i.d.) in the morning and evening (every 8 and 16 hr) with i.p. injections at 50 nmoles/kg. Fresh 2.5% DSS drinking water was prepared every 2 days.
On day six, mice were fasted for four hours and then orally gavaged with 600 mg/kg 4KDa dextran labeled with fluorescein isothiocyanate (FITC) [4KDa-FITC]. One hour after the 4KDa-FITC gavage mice were euthanized, blood was collected and FITC signal was measured in serum. […] The magnitude of 4KDa-FITC dextran translocation observed for SG-11 was similar to the positive control of Gly2-GLP2. Results are shown in FIG. 3, and are presented as mean±SEM. The graph in FIG. 3 represents data pooled from 3 independent experiments (n=30).
SG-11 was also assessed for its effects on the levels of LPS binding protein (LBP) in the blood of the DSS animal with and without SG-11 administration. LPS binding protein (LBP), which has been linked to clinical disease activity in subjects with inflammatory bowel disease, was also measured by ELISA in the serum of mice tested in the DSS model described in Example 4. […] Results are shown in FIG. 4, and are presented as mean±SEM. The graph in FIG. 4 represents data pooled from 3 independent experiments (n=30).
Body weight was measured daily from mice included in the DSS model described in this Example. Percent change from starting weight on day 0 was determined for each mouse. […] Weight loss in mice treated with SG-11 at day 6 was similar to weight loss observed with Gly2-GLP2. The graph in FIG. 5 represents data pooled from two independent experiments (n=20).
Gross pathology observations were made in mice included in the concurrent DSS model performed in this Example. […] No differences in clinical scores were observed between mice given DSS and treated with either Gly2-GLP2 or SG-11. The scoring system used was: (0)=no gross pathology, (1)=streaks of blood visible in feces, (2)=completely bloody fecal pellets, (3) bloody fecal material visible in cecum, (4) bloody fecal material in cecum and loose stool, (5)=rectal bleeding. The graph in FIG. 6 represents data pooled from 3 independent experiments (n=30).
Colon length was measured in mice included in the DSS model described in Example 7. […] The graphs in FIGS. 8A and 8B represent data pooled from 3 independent experiments (n=30). Data are graphed as mean±SEM and are pooled from three independent experiments (n=30). Statistical analysis was performed by a one-way ANOVA followed by a Fisher's LSD multiple comparisons test.
Briefly, in the first DSS mouse model (Example 13A), mice were treated on day zero with test compound intraperitoneally (i.p.) and 6 hours later DSS treatment was initiated. […]

[2] = system: human colonic epithelial cells (HCT8 enterocytes and HT29-MTX goblet cells) co-cultured with U937 monocytes; experiment: In vitro trans-epithelial electrical resistance (TEER) co-culture assay, barrier disruption by heat killed E. coli; assay type: cell-based; conditions: Example 12; 1 μg/ml (40 nM), 6 hours pre-incubation; HK E. coli alone 78.6%; FIG. 17
Description: Assays were performed as described below in trans-well plates where co-cultures of multiple cell types were performed utilizing a permeable membrane to separate cells. In the apical (top) chamber, human colonic epithelial cells, consisting of a mixture of enterocytes and goblet cells, were cultured until cells obtained tight junction formation and barrier function capacity as assessed by measurement of trans-epithelial electrical resistance (TEER). In the basolateral chamber, monocytes were cultured separately. Epithelial cells were primed with inflammatory cytokines. The assays measured the effect of a therapeutic protein, i.e., SG-11, on epithelial barrier function, muc2 gene expression, and production of cytokines.
Cell culture. The HCT8 human enterocyte cell line (ATCC Cat. No. CCL-244) was maintained in RPMI-1640 medium supplemented with 10% fetal bovine serum, 100 IU/ml penicillin, 100 μg/ml streptomycin, 10 μg/ml gentamicin and 0.25 μg/ml amphotericin (cRPMI). […]
Epithelial cell culture. […] Epithelial cells were trypsinized from culture flasks and viable cells determined by trypan blue counting. […]
Co-culture assay. […] Trans-epithelial electrical resistance (TEER) readings were measured after the IFN-γ treatment and were used as the pre-treatment TEER values. […]

[3] = Post-translational modifications after storage, LC-MS/MS, SG-11 vs SG-11V5 (Example 10); assay type: physicochemical; conditions: for Oxidation of M1 (MLEGEESVVYVGK): 1 mg/ml in Buffer 1 (50 mM NaPO4, pH 8, 150 mM NaCl, 10% glycerol)
Description: In accordance with PTMs observed when SG-11 (SEQ ID NO:9) was subjected to stress conditions (Example 11), SG-11V5 (SEQ ID NO:19) was analyzed by LC-MS/MS for post translational modifications using the methods described in Example 11, and compared with PTMs for SG-11 (SEQ ID NO:7)
For this analysis, PTMs of wildtype SG-11 (SEQ ID NO:7) and SG-11V5 (SEQ ID NO:19) were compared. In the first analysis (results provided in Table 10 below), the proteins were stored at a concentration of 1 mg/ml in Buffer 1 (50 mM NaPO4^−, pH 8, 150 mM NaCl, 10% glycerol) and stored for 2 weeks at either 4° C. or 40° C. The proteins were then treated with DTT and IAA, followed by trypsin digestion. The digested samples were then analyzed by Waters ACQUITY UPLC couples to Xevo G2-XS QTOF mass spectrometer using a Protein BEH C18 column.
In a second analysis, the SG-11 (SEQ ID NO:7) and SG-11V5 (SEQ ID NO:19) proteins were each stored at 40° C. in a variety of buffers. The storage buffer used in this experiment was 100 mM NaPO4^−, pH7, with 10% sorbitol (+Sor) or without 10% sorbitol (−Sor) and with 10% glycerol (+Gly) or without 10% glycerol (−Gly) as indicated in Table 11. […] There were also differences in levels of N137 deamidation for the two proteins with the presence of at least glycerol and also the presence of both sorbitol and glycerol resulting in large decreases in N137 deamidation.

[4] = 4° C., 2 weeks, 1 mg/ml in Buffer 1 (pH 8)
[5] = 40° C., 2 weeks, 1 mg/ml in Buffer 1 (pH 8)
[6] = 40° C., 100 mM NaPO4, pH7, +Sor (10% sorbitol) −Gly
[7] = 40° C., 100 mM NaPO4, pH7, +Sor +Gly
[8] = 40° C., 100 mM NaPO4, pH7, −Sor +Gly (10% glycerol)
[9] = 40° C., 100 mM NaPO4, pH7, −Sor −Gly

B1: SG-11 (SEQ ID NO:7): Recombinant SG-11 with N-terminal methionine, 233 amino acids, no N-terminal tag (protein)
chain: MLEGEESVVYVGKKGVIASLDVETLDQSYYDETELKSYVDAEVEDYTAEHGKNAVKVESLKVEDGVAKLKMKYKTPEDYTAFNGIELYQGKVVASLAAGYVYDGEFARVEEGKVVGAATKQDIYSEDDLKVAIIRANTDVKVDGEICYVSCQNVKLTGKDSVSIRDGYYLETGSVTASVDVTGQESVGTEQLSGTEQMEMTGEPVNADDTEQTEAAAGDGSFETDVYTFIVYK
4KDa-FITC signal in serum ([1]; Example 13A, 50 nmoles/kg i.p. twice a day, p=0.04, FIG. 18A): significantly reduced the 4KDa-FITC signal
Colon length ([1]; Example 13A): significant increase in the colon length
TEER after HK E. coli (normalized, relative to untreated samples) [2]: 89.5%
Oxidation of M1 (MLEGEESVVYVGK) ([3]; 4° C., 2 weeks): 8.9%
Deamidation of N83 [3, 4]: 19.4%
Deamidation of N137 (ANTDVK) [3, 4]: 1.0%
Oxidation of M1 (MLEGEESVVYVGK) ([3]; 40° C., 2 weeks): 12.5%
Deamidation of N83 [3, 5]: 98.1%
Deamidation of N137 (ANTDVK) [3, 5]: 0.9%
Deamidation of N83 [3, 6]: 93.9%
Deamidation of N137 [3, 6]: 2.6%
Oxidation of M1 [3, 6]: 12.1%
Deamidation of N83 [3, 7]: 87.4%
Deamidation of N137 [3, 7]: 2.5%
Oxidation of M1 [3, 7]: 27.8%
Deamidation of N83 [3, 8]: 96.2%
Deamidation of N137 [3, 8]: 3.0%
Oxidation of M1 [3, 8]: 38.6%
Deamidation of N83 [3, 9]: 98.1%
Deamidation of N137 [3, 9]: 0.9%
Oxidation of M1 [3, 9]: 20%

B2: SG-11V5: SG-11 variant SEQ ID NO:19 comprising N53S, N83S, C147V, C151S with respect to SEQ ID NO:7 (protein)
chain: MLEGEESVVYVGKKGVIASLDVETLDQSYYDETELKSYVDAEVEDYTAEHGKSAVKVESLKVEDGVAKLKMKYKTPEDYTAFSGIELYQGKVVASLAAGYVYDGEFARVEEGKVVGAATKQDIYSEDDLKVAIIRANTDVKVDGEIVYVSSQNVKLTGKDSVSIRDGYYLETGSVTASVDVTGQESVGTEQLSGTEQMEMTGEPVNADDTEQTEAAAGDGSFETDVYTFIVYK
Gross pathology score (0-5) ([1]; Example 13, 160 nmoles/kg, dose dependent effect, p<0.002, FIG. 21): significant improvement
4KDa-FITC signal in serum ([1]; Example 13, FIG. 18B, p=0.21): also reduced the 4KDa-FITC signal, although the difference was not reach statistical significance
LBP in serum (ELISA) ([1]; Example 13A, 158 nmoles/kg i.p. twice a day, p=0.003, FIG. 19A): significant reduction in LBP production
Body weight ([1]; Example 13A, 158 nmoles/kg, day 6, FIG. 20A): significant improvement in body weight
Colon length ([1]; Example 13A): significant increase in the colon length
Dose dependence of effect on colon length ([1]; prophylactic DSS model, 16, 50 and 158 nmoles/kg): no dose-dependent effect on colon length
TEER after HK E. coli (normalized, relative to untreated samples) [2]: 89.1%
Oxidation of M1 (MLEGEESVVYVGK) ([3]; 4° C., 2 weeks): 2.5%
Deamidation of N137 (ANTDVK) [3, 4]: 0.1%
Oxidation of M1 (MLEGEESVVYVGK) ([3]; 40° C., 2 weeks): 4.7%
Deamidation of N137 (ANTDVK) [3, 5]: 0.3%
Deamidation of N137 [3, 6]: 3.3%
Oxidation of M1 [3, 6]: 3.3%
Deamidation of N137 [3, 7]: 0.1%
Oxidation of M1 [3, 7]: 5.9%
Deamidation of N137 [3, 8]: 0.4%
Oxidation of M1 [3, 8]: 5.6%
Deamidation of N137 [3, 9]: 1.5%
Oxidation of M1 [3, 9]: 2.7%

— patent US11505583B2, “Proteins for the treatment of epithelial barrier function disorders” (Second Genome, Inc., priority 2018, dated 2022)
